This series in a line: yeast display, Sf9 membrane polyspecificity reagent, FACS + sequencing; frameworks hold sequencing errors. Summed up:
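Galactose-induced (36–48 hours) yeast carrying a synthetic nanobody display library were exposed to 10% biotinylated, detergent-solubilized Sf9 membrane reagent at 4 °C for 1 hour. FACS followed streptavidin microbead enrichment, using low and high (top ~1%) gates for expression (anti-HA) and reagent binding (streptavidin). Colony PCR, MiSeq 2 × 250 sequencing and CDR-length filtering followed. Labels for polyreactivity reflect the gate of origin.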
For “QVQLVESGGGLVQAGGSLRLSCAASGSTFYRNVMGWYRQAPGKERELVAAISASGGSTYYADSVKGRFTISRDNAKNTVYLQMNSLKPEVTAVYYCAVDNRQYRYLYYYWGQGSQVTVSS”, the “polyreactivity (PSR sort gate)” value is given as “high polyreactivity”. With “QVQLVESGGGLVQAGGSLRLSCAASGSTFYRYALGWYRQAPGKEREFVAAISRSGGSTNYADSVKGRFTISRDNAKNTVYLQMNSMKPEDTAVYYCAAKYSDYQYGRYYYWGQGTQVTVSS”, the “polyreactivity (PSR sort gate)” value is reported as “high polyreactivity”. For “QVQLVESGGGLVQAGGSLRLSCAASGSTFYRYAMGWYRQAPGKERELVAAISKRGGSTYYADSVKGRFTISRDNAKNTVYLQMNSLKPEDTAVYYCNAVGYKGTTYDYWGQGTQVTVSS” the value was “high polyreactivity”; for “QVQLVESGGGLVQAGGSLRLSCAASGSTFYRYAMGWYRQAPGKERELVARIDWSDGSTNYADSVKGRFTISRDNAKNTVYLQMNSLKPEDTAVYYCAADTYSDTYDGEYEYWGQGTQVTVSS”, “low polyreactivity”. Take “QVQLVESGGGLVQAGGSLRLSCAASGSTFYRYAMGWYRQAPGNERELVAVLRYTSGRTYYADSVKGRFTISRDNAKYTVYLQMNSLKREDTAVYYCATDPYGTRGTDSRYNYWGQGIQVTVSS”: the “polyreactivity (PSR sort gate)” value is “high polyreactivity”. For the sequence “QVQLVESGGGLVQAGGSLRLSCAASGSTFYSNAMGCYRQAPGKEREFVAAITGGDVRTYYADSVKGRFTISRDNAKNTVYLPMNSLKPEDTAVYFCATGPYIWPEWSPGFDYWGQGTQVTVSS”, the “polyreactivity (PSR sort gate)” value was “low polyreactivity”. Regarding “QVQLVESGGGLVQAGGSLRLSCAASGSTFYSYAMGWYRPAPGKERELVAAITTSGGSTYYADSVKGRFTISRDNAKNTVYLQMNSLKPEDTAVYYCNAYFIYEGGWYYKAQYDYWGQGTQVTVSS”, the “polyreactivity (PSR sort gate)” value is listed as “low polyreactivity”. As for “QVQLVESGGGLVQAGGSLRLSCAASGSTFYSYAMGWYRQAPGKEREFVAVISWSGGRTRYADSVKGRFTISRDNAKNTVYLQMKSVKPEDTAVYYCNARKWGYSPHRKGDRHFEYWGQGTQVTVSS”, the “polyreactivity (PSR sort gate)” value is “low polyreactivity”. For the sequence “QVQLVESGGGLVQAGGSLRLSCAASGSTFYSYAMGWYRQAPGKERELVAAISSGGSTYYADSVKGRFTISRDNAKNTGYLQMNSLKPEDTAVYYCAAKRRAKTGYRYDYWGQGTQVTVSS”, the “polyreactivity (PSR sort gate)” value was “high polyreactivity”. For “QVQLVESGGGLVQAGGSLRLSCAASGSTFYSYAMGWYRQAPGKERELVAAITRGGSTYYADSVKGRFTISRDNAKNTVYLQMNSLKPEDTAVYYCAARPWTSASYDYWGQGTQVTVSS” the value was “low polyreactivity”. On to “QVQLVESGGGLVQAGGSLRLSCAASGSTFYSYAMGWYRQAPGKERELVAAITTSGVSTYYADSVKGRFTISRDNAKNTVYLQMNSLKPEDTAVYYCNAYFIYEGGWYYKAQYDYWGQGTQVTVSS”, for which the “polyreactivity (PSR sort gate)” value was “low polyreactivity”. Turning to “QVQLVESGGGLVQAGGSLRLSCAASGSTFYSYAMGWYRQAPGKERELVASITRGGSTNYADSVKGRFTISRDNAKNTVYLQMNSLKPEDTAVYYCITRGNARMDYWGQGTQVTVSS”, the “polyreactivity (PSR sort gate)” value is given as “high polyreactivity”. On to “QVQLVESGGGLVQAGGSLRLSCAASGSTFYSYTMGWYRQAPWKERELVATISWSGSSTYYADSVKGRFTISRDNAKNTVYLQMNSLKPEDTAVYYCAAEWDESYSYRRYRHYDYWGQGTQVTVSS”, for which the “polyreactivity (PSR sort gate)” value is on record as “low polyreactivity”.

In the case of “QVQLVESGGGLVQAGGSLRLSCAASGSTFYSYVMGGYRQAPGKERELVAAISKRGTSTYYADSVKGRFTISRDNAKYTVYLQMNSLKPEDNAVYYCAARPIVGVYPDIYDYWGHGTQVTVSS”, the “polyreactivity (PSR sort gate)” value is given as “low polyreactivity”. As for “QVQLVESGGGLVQAGGSLRLSCAASGSTFYTNAMGWYRQAPGKEREFVAAISGRGSNTYYADSVKGRFTISRDNAKNTVYLQMNSLKPEDTAVYYCAADFRSEHAEDYWGQGTQVTVSS”, the “polyreactivity (PSR sort gate)” value is “high polyreactivity”. As for “QVQLVESGGGLVQAGGSLRLSCAASGSTFYTNAMGWYRQAPWKERELVAAISNAVSTYYADSVKGRFTISRDNAKNTVYLQMKSLKPEDTAVYYCAADPIGLSSLWFRYSVSDVDYWGQGTQVTVSS”, the “polyreactivity (PSR sort gate)” value was “low polyreactivity”. Regarding “QVQLVESGGGLVQAGGSLRLSCAASGSTFYTNPMGWYRQAPGKEREFVAAISGSGSSTYADSVKGRFTISRDNAKNTVYLQMNSLKPEDTAVYYCAADWFILRTDYYWGQGTQVTVSS”, the “polyreactivity (PSR sort gate)” value is reported as “low polyreactivity”. Regarding “QVQLVESGGGLVQAGGSLRLSCAASGSTFYTYAMGWYRQAPGKERELVAAISGSGGRTYYADSVKGRFTISRDNAKNTVYLQMNSLKPEDTAVYYCAAYSYRKHATGSRDMDYWGQGTQVTVSS”, the “polyreactivity (PSR sort gate)” value was “high polyreactivity”. As to “QVQLVESGGGLVQAGGSLRLSCAASGSTFYVYAMGWYRQAPGKERELVAAINFNGGGTYYADSVKGRFTISRDNAKNTVYLQMNSLKPEDTAVYYCYYLYNYWGQGTQVTVSS”, the “polyreactivity (PSR sort gate)” value is on record as “low polyreactivity”. Turning to “QVQLVESGGGLVQAGGSLRLSCAASGSTFYVYAMGWYRQAPGKERELVAAISKRGGTTYYADSVKGRFTISRDNAKNTVYLQMNSLKPEDTAVYYCAADVRSPSAGYQGGYWGQGTQVTVSS”, the “polyreactivity (PSR sort gate)” value was “high polyreactivity”. For “QVQLVESGGGLVQAGGSLRLSCAASGSTFYVYAMGWYRQAPGKERELVAAITTGGSTYYADSVKGRFTISRDNAKNTVYLQMNSLKPEDTAVYYCAADDPDPYDVPSYDYWGQGTQVTVSS” the value was “low polyreactivity”; for “QVQLVESGGGLVQAGGSLRLSCAASGSTFYWYAMGWYRQAPGKERELVAVITVRGGSTYYADSVKGRFTISRDNAKNTVYLQMNSLKPEDTAVYYCAAEPTSYLYKYWYDYWGEGTQVTVSS”, “low polyreactivity”; for “QVQLVESGGGLVQAGGSLRLSCAASGSTFYWYAMGWYRQAPGKERELVDDITFSSGGTYYADSVKGRFTISRDNAKNTVYLQMNSLKPEVTADYYCATEYSLWYTRDWQRYEYWGQGTQVTVSS”, “high polyreactivity”. For “QVQLVESGGGLVQAGGSLRLSCAASGSTFYWYTMGWYRQAPGKERELVARISSSGSTNYADSVKGRFTISRDNAKNTVYFQMNSLKPEDTAVYYCNKDWIYRGYDYWGQGTQVTVSS” the value was “high polyreactivity”. Regarding “QVQLVESGGGLVQAGGSLRLSCAASGSTFYWYTMGWYRQAPGKERELVATINYSGGSTYYADSVKGRFTISRDNAKNTVYLQMNSLKPEDTAVYYCNKQVYVGWGSDYWGQGTQVTVSS”, the “polyreactivity (PSR sort gate)” value is reported as “low polyreactivity”. Consider “QVQLVESGGGLVQAGGSLRLSCAASGSTFYYGMGWYRQAPGKERELVAAISSRGGTTYYADSVKGRFTISRDNAKNTVYLQMNSLKPEDTAVDYCAAPVPYYVPRRNEGDYWGQGTQVTVSS”, for which the “polyreactivity (PSR sort gate)” value is on record as “low polyreactivity”.

On to “QVQLVESGGGLVQAGGSLRLSCAASGSTFYYNAMGGYRQAPGKEWELVATITSAGRTNYADSVKGRFTISRVNAKNTDYLQMNSLKPEDTAVYYCNARYRLSRYNYWGQGTQVTVSS”, for which the “polyreactivity (PSR sort gate)” value is reported as “low polyreactivity”.

Consider “QVQLVESGGGLVQAGGSLRLSCAASGSTFYYNAMGWYRQAPGKERELVAAISGSGGSTYYADSVKGRFTISRDNAKNTVYLQMNSLKPEDTAVYYCAALYGPGREYDYWGQGTQVTVSS”, for which the “polyreactivity (PSR sort gate)” value is given as “low polyreactivity”. For “QVQLVESGGGLVQAGGSLRLSCAASGSTFYYNAMGWYRQAPGKERELVADISWRGGITYYADSVKGRFTISRDNAKNTVYLQMNSLKPEDTAVYYCNADAESFDDGYWGQGTQVTVSS”, the “polyreactivity (PSR sort gate)” value is listed as “low polyreactivity”. In the case of “QVQLVESGGGLVQAGGSLRLSCAASGSTFYYNDMGWYRQAPGKERELVAAIRTSGSTNYADSVKGRFTISRDYAKNNVYLQMNSLKPEDTAVYYCNAVVRHWFPGWYGRGDDYWGQGTQVTVSS” it was “low polyreactivity”; in that of “QVQLVESGGGLVQAGGSLRLSCAASGSTFYYNTMGWYRQAPGKERELVAAISRSGGSTYYADSVKGRFTISRDNAKNTVYLQMNSLKPEDTAVYYCAARIIGARNLYGYWGQGTQVTVSS”, “high polyreactivity”. “QVQLVESGGGLVQAGGSLRLSCAASGSTFYYYAMGRYRQAPGKEMELVATISRGGSTNYADSVKGRFTISRDNAKNTVYLQMNSLKPEDTAVYYCAIGYLRPYGSHRESTPYDYWGEGTQVTVSS”: the “polyreactivity (PSR sort gate)” value is “low polyreactivity”. As to “QVQLVESGGGLVQAGGSLRLSCAASGSTFYYYAMGWYRQAPGKEREFVASISSRGTSTYYADSVKGPFTISRDNAKNTVYLQMNSLKPEDTAVYYCAARGWGPTRAYDYWGQGTQVTVSS”, the “polyreactivity (PSR sort gate)” value was “high polyreactivity”. Turning to “QVQLVESGGGLVQAGGSLRLSCAASGSTFYYYAMGWYRQAPGKERELVAAIDWSGESTYYADSVKGRFTISRDNAKNTVYLQMNSLKPEDTAVYYCAAVRSAQRWRRYYYWGQGTQVTVSS”, the “polyreactivity (PSR sort gate)” value is reported as “low polyreactivity”. In the case of “QVQLVESGGGLVQAGGSLRLSCAASGSTFYYYAMGWYRQAPGKERELVAAINYNGGSTHYADSVKGRFTISRDNAKNTVYLQMISLKPEDTAVYYCAAKYRLSYTHGYWGQGSQVTVSS” it was “low polyreactivity”. For “QVQLVESGGGLVQAGGSLRLSCAASGSTFYYYAMGWYRQAPGKERELVAAISGGGNTKYADSVKGRFTISRDNAKNTVYLQMNSLKPEDTAVYYCAARLAYWYYYAWRGPYYYWGQGPQVTVSS” the value was “high polyreactivity”; for “QVQLVESGGGLVQAGGSLRLSCAASGSTFYYYAMGWYRQAPGKERELVAAISRGGSTYYADSVKGRFTISRDNAKNTVYLQMNSLKPEDTAVYYCAVDARPYRQIYLYEYWGQGTQVTVSS”, “low polyreactivity”; for “QVQLVESGGGLVQAGGSLRLSCAASGSTFYYYAMGWYRQAPGKERELVAAITLRGTSTYYADSVKGRFTISRDNAKNTVYLQMNRLKPEDTAVYYCAVETYYSIFDIYDYWGQGTQVTVSS”, “low polyreactivity”. On to “QVQLVESGGGLVQAGGSLRLSCAASGSTFYYYAMGWYRQAPGKERELVASIRSRDGSTRYADSVKGRFTISRDNAKNTVYLQMNSLKPEDTAVYYCAAVGYRRVDAGSSASRYDYWGQGTQVTVSS”, for which the “polyreactivity (PSR sort gate)” value is on record as “high polyreactivity”. For “QVQLVESGGGLVQAGGSLRLSCAASGSTFYYYAMGWYRQAPGKERELVAVITFSGGSTNYADSVKGRFTISRDNAKNTVYLQMNSLKPEDTAVYYCAADTYSYRYSNDYWGQGTQVTVSS” the value was “low polyreactivity”.

The record behind these values is the nanobody polyreactivity screen of Harvey et al. (2022).
